Assay [1] has as its target His6-tagged vaccinia virus D13 (native D13) (vaccinia virus, Western Reserve strain). Nature of the assay: negative-stain electron microscopy.
Assay [2] has the same target. Briefly: crystal structure.

The stoichiometry N is a count of units in the complex or per binding partner.

For the substance “His6-tagged vaccinia virus D13 (native D13) (natural protein)”, the stoichiometry N in assay [1] and in assay [2] was 3 in each case.
